Assay results as given in EP0251446B1, “Non-human Carbonyl hydrolase mutants, DNA sequences and vectors encoding same and hosts transformed with said vectors” (GENENCOR INTERNATIONAL, INC., priority 1986, dated 1988).
Where a chain is given by its changes, count along the chain named. Names may count otherwise.

Tests used:
Assay type in all cases: biochemical, B. amyloliquefaciens
[1] = substrate: CSCC[C@H](NC(=O)[C@@H]1CCCN1C(=O)[C@H](C)NC(=O)[C@H](C)NC(=O)CCC(=O)O)C(=O)Nc1ccc([N+](=O)[O-])cc1; assay: Kinetics of p-nitroanilide substrate hydrolysis, Q156/K166; details: other: Table XIV, 156 Gln / 166 Lys; value in parentheses; synthetic substrate with label as P-1 amino acid
Description: (§1) Wild-type subtilisin was purified from B. subtilis culture supernatants expressing the B. amyloliquefaciens subtilisin gene (Wells, J.A., et al. (1983) Nucleic Acids Res. 11, 7911-7925) as previously described (Estell, D.A., et al. (1985) J. Biol. Chem. 260, 6518-6521). Details of the synthesis of tetrapeptide substrates having the form succinyl-L-AlaL-AlaL-ProL-[X]-p-nitroanilide (where X is the P1 amino acid) are described by DelMar, E.G., et al. (1979) Anal. Biochem. 99, 316-320. Kinetic parameters, Km(M) and kcat-(s-^1) were measured using a modified progress curve analysis (Estell, D.A., et al. (1985) J. Biol. Chem. 260, 6518-6521). Briefly, plots of rate versus product concentration were fit to the differential form of the rate equation using a non-linear regression algorithm. Errors in kcat and Km for all values reported are less than five percent. The various substrates in Table VIII are ranged in order of decreasing hydrophobicity. Nozaki, Y. (1971), J. Biol. Chem. 246, 2211-2217; Tanford C. (1978) Science 200, 1012).
(§2) The multiple mutants were produced by combining fragments 1, 2 and 3 as described in Example 8. The mutants Q156/K166 and S156/K166 were selectively generated by differential phosphorylation as described. Alternatively, the double 156/166 mutants, c.f. Q156/K166 and S156/K166, were prepared by ligation of the 4.6kb Sacl-BamHI fragment from the relevant p156 plasmid containing the 0.6kb Sacl-BamHI fragment from the relevant p166 plasmid.
(§3) These mutants, the single mutant K166, and the S156 and Q156 mutants of Example 8 were analyzed for substitute specificity against synthetic polypeptides containing Phe or Glu as the P-1 substrate residue.
(§4) To isolate the contribution of electrostatics to substrate specificity from other chemical binding forces, these various single and double mutants were analyzed for their ability to bind and cleave synthetic substrates containing Glu, Gln, Met and Lys as the P-1 substrate amino acid. This permitted comparisons between side-chains that were more sterically similar but differed in charge (e.g., Glu versus Gln, Lys versus Met). Similarly, mutant enzymes were assayed against homologous P-1 substrates that were most sterically similar but differed in charge (Table XIV).

[2] = substrate: C[C@H](NC(=O)CCC(=O)O)C(=O)N[C@@H](C)C(=O)N1CCC[C@H]1C(=O)N[C@@H](CCC(=O)O)C(=O)Nc1ccc([N+](=O)[O-])cc1; assay: as above
Description: as §1, §2, §3, §4

[3] = substrate: C[C@H](NC(=O)CCC(=O)O)C(=O)N[C@@H](C)C(=O)N1CCC[C@H]1C(=O)N[C@@H](CCC(N)=O)C(=O)Nc1ccc([N+](=O)[O-])cc1; assay: as above; details: other: Table XIV, 156 Gln / 166 Lys; value in parentheses; synthetic substrate with label as P-1 amino acid
Description: as §1, §2, §3, §4

[4] = substrate: C[C@H](NC(=O)CCC(=O)O)C(=O)N[C@@H](C)C(=O)N1CCC[C@H]1C(=O)N[C@@H](CCCCN)C(=O)Nc1ccc([N+](=O)[O-])cc1; assay: as above; details: other: Table XIV, 156 Gln / 166 Lys; value in parentheses; synthetic substrate with label as P-1 amino acid
Description: as §1, §2, §3, §4

[5] = substrate: C[C@H](NC(=O)CCC(=O)O)C(=O)N[C@@H](C)C(=O)N1CCC[C@H]1C(=O)N[C@@H](Cc1ccccc1)C(=O)Nc1ccc([N+](=O)[O-])cc1; assay: as above; details: other: Table XIII, Q156/K166; synthetic substrate with label as P-1 residue
Description: as §1, §2, §3, §4

[6] = substrate: CSCC[C@H](NC(=O)[C@@H]1CCCN1C(=O)[C@H](C)NC(=O)[C@H](C)NC(=O)CCC(=O)O)C(=O)Nc1ccc([N+](=O)[O-])cc1; assay: Kinetics of p-nitroanilide substrate hydrolysis, S156/K166; details: other: Table XIV, 156 Ser / 166 Lys; value in parentheses; synthetic substrate with label as P-1 amino acid
Description: as §1, §2, §3, §4

[7] = substrate: C[C@H](NC(=O)CCC(=O)O)C(=O)N[C@@H](C)C(=O)N1CCC[C@H]1C(=O)N[C@@H](CCC(=O)O)C(=O)Nc1ccc([N+](=O)[O-])cc1; assay: as above
Description: as §1, §2, §3, §4

[8] = substrate: C[C@H](NC(=O)CCC(=O)O)C(=O)N[C@@H](C)C(=O)N1CCC[C@H]1C(=O)N[C@@H](CCC(N)=O)C(=O)Nc1ccc([N+](=O)[O-])cc1; assay: as above; details: other: Table XIV, 156 Ser / 166 Lys; value in parentheses; synthetic substrate with label as P-1 amino acid
Description: as §1, §2, §3, §4

[9] = substrate: C[C@H](NC(=O)CCC(=O)O)C(=O)N[C@@H](C)C(=O)N1CCC[C@H]1C(=O)N[C@@H](CCCCN)C(=O)Nc1ccc([N+](=O)[O-])cc1; assay: as above; details: other: Table XIV, 156 Ser / 166 Lys; value in parentheses; synthetic substrate with label as P-1 amino acid
Description: as §1, §2, §3, §4

[10] = substrate: C[C@H](NC(=O)CCC(=O)O)C(=O)N[C@@H](C)C(=O)N1CCC[C@H]1C(=O)N[C@@H](Cc1ccccc1)C(=O)Nc1ccc([N+](=O)[O-])cc1; assay: as above; details: other: Table XIII, S156/K166; synthetic substrate with label as P-1 residue
Description: as §1, §2, §3, §4

[11] = substrate: CSCC[C@H](NC(=O)[C@@H]1CCCN1C(=O)[C@H](C)NC(=O)[C@H](C)NC(=O)CCC(=O)O)C(=O)Nc1ccc([N+](=O)[O-])cc1; assay: Kinetics of p-nitroanilide substrate hydrolysis, Q166; details: other: Table XIV, 156 Glu / 166 Gln; value in parentheses; synthetic substrate with label as P-1 amino acid
Description: as §1
(§5) The construction of subtilisin mutants containing the substitution of the ionic amino acids Asp, Asn, Gln, Lys and Ang are disclosed in EPO Publication No. 0130756. The present example describes the construction of the mutant subtilisin containing Glu at position 166 (E166) and presents substrate specificity data on these mutants. Further data on position 166 and 156 single and double mutants is presented infra.
(§6) Each of these mutants was analyzed with the tetrapeptide substrates, succinyl-L-AlaL-AlaProL-X-p-nitroanilide, where X was Phe, Ala and Glu.

[12] = substrate: C[C@H](NC(=O)CCC(=O)O)C(=O)N[C@@H](C)C(=O)N1CCC[C@H]1C(=O)N[C@@H](CCC(=O)O)C(=O)Nc1ccc([N+](=O)[O-])cc1; assay: as above; details: other: Table XIV, 156 Glu / 166 Gln; value in parentheses; synthetic substrate with label as P-1 amino acid
Description: as §1, §5, §6

[13] = substrate: C[C@H](NC(=O)CCC(=O)O)C(=O)N[C@@H](C)C(=O)N1CCC[C@H]1C(=O)N[C@@H](CCC(N)=O)C(=O)Nc1ccc([N+](=O)[O-])cc1; assay: as above; details: other: Table XIV, 156 Glu / 166 Gln; value in parentheses; synthetic substrate with label as P-1 amino acid
Description: as §1, §5, §6

[14] = substrate: C[C@H](NC(=O)CCC(=O)O)C(=O)N[C@@H](C)C(=O)N1CCC[C@H]1C(=O)N[C@@H](CCCCN)C(=O)Nc1ccc([N+](=O)[O-])cc1; assay: as above; details: other: Table XIV, 156 Glu / 166 Gln; value in parentheses; synthetic substrate with label as P-1 amino acid
Description: as §1, §5, §6

[15] = other: Table XIII, Q156/K166, synthetic substrate with label as P-1 residue
[16] = other: Table XIII, S156/K166, synthetic substrate with label as P-1 residue

B1: B. amyloliquefaciens subtilisin variant Q156/K166 (Bacillus amyloliquefaciens; E263Q/G273K) (protein)
chain: AQSVPYGVSQIKAPALHSQGYTGSNVKVAVIDSGIDSSHPDLKVAGGASMVPSETNPFQDNNSHGTHVAGTVAALNNSIGVLGVAPSASLYAVKVLGADGSGQYSWIINGIEWAIANNMDVINMSLGGPSGSAALKAAVDKAVASGVVVVAAAGNQGTSGSSSTVKYPGKYPSVIAVGAVDSSNQRASFSSVGPELDVMAPGVSIQSTLPGNKYGAYNGTSMASPHVAGAAALILSKHPNWTNTQVRSSLENTTTKLGDSFYYGKGLINVQAAAQ
notes: at various amino acid residues within the mature form of the subtilisin molecule; made in house
Km [1]: 20.9 µM | Km [2, 15]: 31 µM | kcat [2, 15]: 1.60 s-^1 | kcat/Km [2, 15]: 50000 M⁻¹ s⁻¹ | Km ([2]; other: Table XIV, 156 Gln / 166 Lys, value in parentheses, synthetic substrate with label as P-1 amino acid): 31.6 µM | Km [3]: 209 µM | Km [4]: 1780 µM | Km [5]: 19 µM | kcat [5]: 30.00 s-^1 | kcat/Km [5]: 1.6e+06 M⁻¹ s⁻¹

B2: B. amyloliquefaciens subtilisin variant S156/K166 (Bacillus amyloliquefaciens; E263S/G273K) (protein)
chain: B1 chain with Q156S
notes: as for B1
Km [6]: 12.6 µM | Km [7, 16]: 39 µM | kcat [7, 16]: 0.60 s-^1 | kcat/Km [7, 16]: 16000 M⁻¹ s⁻¹ | Km ([7]; other: Table XIV, 156 Ser / 166 Lys, value in parentheses, synthetic substrate with label as P-1 amino acid): 39.8 µM | Km [8]: 115 µM | Km [9]: 1450 µM | Km [10]: 18 µM | kcat [10]: 30.00 s-^1 | kcat/Km [10]: 1.6e+06 M⁻¹ s⁻¹

B3: B. amyloliquefaciens subtilisin variant Q166 (Gly166 to Gln) (Bacillus amyloliquefaciens; G273Q) (protein)
chain: B1 chain with Q156E, K166Q
notes: at various amino acid residues within the mature form of the subtilisin molecule; made in house; host or cells: Bacillus subtilis BG2036
Km [11]: 43.7 µM | Km [12]: 7590 µM | Km [13]: 229 µM | Km [14]: 708 µM
